Residues, ends and D or L forms follow the SMILES beside them. *: point of attachment. Biotin = O=C1N[C@H]2[C@H](CS[C@H]2CCCCC(=O)*)N1
B1: Myosin A (protein)
chain: MAVTNEEIKTASKIVRRVSNVEAFDKSGSVFKGYQIWTDISPTIENDPNIMFVKCVVQQGSKKEKLTVVQIDPPGTGTPYDIDPTHAWNCNSQVDPMSFGDIGLLNHTNIPCVLDFLKHRYLKNQIYTTAVPLIVAINPYKDLGNTTNEWIRRYRDTADHTKLPPHVFTCAREALSNLHGVNKSQTIIVSGESGAGKTEATKQIMRYFASSKSGNMDLRIQTAIMAANPVLEAFGNAKTIRNNNSSRFGRFMQLVISHEGGIRYGSVVAFLLEKSRIITQDDNERSYHIFYQFLKGANSTMKSKFGLKGVTEYKLLNPNSTEVSGVDDVKDFEEVIESLKNMELSESDIEVIFSIVAGILTLGNVRLIEKQEAGLSDAAAIMDEDMGVFNKACELMYLDPELIKREILIKVTVAGGTKIEGRWNKNDAEVLKSSLCKAMYEKLFLWIIRHLNSRIEPEGGFKTFMGMLDIFGFEVFKNNSLEQLFINITNEMLQKNFVDIVFERESKLYKDEGISTAELKYTSNKEVINVLCEKGKSVLSYLEDQCLAPGGTDEKFVSSCATNLKENNKFTPAKVASNKNFIIQHTIGPIQYCAESFLLKNKDVLRGDLVEVIKDSPNPIVQQLFEGQVIEKGKIAKGSLIGSQFLNQLTSLMNLINSTEPHFIRCIKPNENKKPLEWCEPKILIQLHALSILEALVLRQLGYSYRRTFEEFLYQYKFVDIAAAEDSSVENQNKCVNILKLSGLSESMYKIGKSMVFLKQEGAKILTKIQREKLVEWENCVSVIEAAILKHKYKQKVNKNIPSLLRVQAHIRKKMVAQ
modifications: left off: GST, N-terminal, kept
notes: GST-tagged PfMyoA expressed in wheat germ cell-free system

Legend:
[1] = target: T1, PfELC (Plasmodium falciparum, UniProt Q8IJM4); assay: biolayer interferometry binding of PfELC to immobilized MyoA neck peptides; design: species or system P. falciparum; conditions: 25 °C, pH 8.0, PfELC 0.04–5 μM
T1 construct: His tag (N); made in house; host or cells: E. coli BL21 (DE3)
Experimental: Overlapping peptides representing amino acids Gln^770–Ala^787, Ala^786–Ser^803, and Ile^801–Gln^818 of the PfMyoA neck were synthesized by Mimotopes with biotin at the N terminus. […] The C termini of the peptides were capped with an amide to remove unnatural charge, apart from peptide 801–818, which was left as a free acid.
P. falciparum ELC binding to peptides was analyzed by biolayer interferometry using the Octet Red system (ForteBio) at 25 °C in 96-well microplates, as described previously ([63]). All assays were performed in 100 mM Tris-HCl, pH 8.0, containing 0.005% (v/v) Tween 20, according to the manufacturer's instructions. A baseline was established over 4 min, and biotinylated peptides (0.4 μg/ml) were loaded onto streptavidin sensors for 10 min. The sensors were washed for 4 min and then incubated with PfELC at different concentrations (0.04–5 μM) for 800 s. The data were analyzed to calculate a dissociation constant (Kd) using non-linear regression with a one-site binding model and a least-squares fit (GraphPad Prism version 6).

[2] = tested on: actin; assay: optical tweezer-based single-molecule acto-MyoA interaction; type: biochemical
Experimental: MyoA was expressed in a wheat germ cell-free protein synthesis system (ENDEXT® Technology, CellFree Sciences) ([64]). Recombinant plasmid DNA using recodonized template DNA was amplified using specific primers and cloned into the vector pEU-E01G-TEV-N1 to express N-terminal GST-tagged protein. For the in vitro transcription reaction, 2 μg of DNA was added to a transcription premix (11.5 μl of nuclease-free water, 1× transcription buffer, 2.5 mM NTP mix, 1 unit/μl RNase inhibitor, 1 unit/μl SP6 RNA polymerase) in a total volume of 20 μl and incubated at 37 °C for 6 h, according to the manufacturer's instructions. The quality of mRNA produced was monitored by gel electrophoresis. The bilayer reaction system (CellFree Sciences) was used to translate mRNA into protein. mRNA (10 μl) was added to 10 μl of wheat germ extract (WEPRO® 1240) supplemented with 40 ng/μl creatine kinase and carefully transferred directly below the SUB-AMIX solution (0.3 mM of each L-amino acid, 100 mM potassium acetate, 2.7 mM magnesium acetate, 16 mM disodium creatine phosphate, 0.4 mM spermidine, 1.2 mM ATP, 0.25 mM GTP, 4 mM dithiothreitol, and 30 mM HEPES-KOH (pH 7.8)) and incubated for 20 h at 15–16 °C. Soluble GST-tagged MyoA was purified using glutathione-Sepharose beads (GE Healthcare); supernatant was incubated with the resin for 2 h at 4 °C, followed by extensive washing with 20 mM Tris-HCl, pH 8.0, 250 mM NaCl, 0.5 mM TCEP. The beads were resuspended in 3 volumes of 20 mM Tris-HCl, pH 8.0, 100 mM NaCl, 10 mM reduced glutathione to elute the GST-tagged protein. This was followed by buffer exchange into PBS on a PD10 column (GE Healthcare).
The optical tweezer assay, developed to measure the force and movement produced by individual myosin molecules interacting with an actin filament, was used in the well-established three-bead format with the experimental conditions as described ([65][–][67]). The experimental apparatus is based around a Zeiss inverted microscope, and experiments were performed in a flow-cell chamber created using a microscope slide and coverslip. […] Interactions between the surface-bound MyoA and the actin filament were recorded by monitoring movement of the beads held in the optical tweezers using two 4-quadrant, photodiode detectors. […] Individual events were then automatically detected by measuring changes in amplitude of the imposed triangular oscillation, and event amplitudes were histogrammed. Data were acquired and saved to computer memory using custom software, with a sampling rate of 10 kHz, and later analyzed using IgorPro software (WaveMetrics Inc., Lake Oswego, OR). Individual acto-MyoA force-producing events were identified as described previously ([65]), and the MyoA power-stroke amplitude and kinetics were analyzed by histogram analysis of the data.

T1 sequence (Q8IJM4 entry or part of it): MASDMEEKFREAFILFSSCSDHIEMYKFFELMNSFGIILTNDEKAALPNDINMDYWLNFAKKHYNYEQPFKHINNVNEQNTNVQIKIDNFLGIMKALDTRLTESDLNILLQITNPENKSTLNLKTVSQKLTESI

| Molecule | binding to PfELC (in words) [1] | binding to PfELC (in words) ([1]; listed as MyoA 770–787) | rate constant of event lifetimes (single-exponential least-square fit) ([2]; 0.3 μM Mg·ATP) | rate constant of event lifetimes (single-exponential least-square fit) ([2]; 8 μM Mg·ATP) | second-order rate constant for Mg·ATP binding and dissociating the acto-MyoA rigor complex ([2]; from event lifetimes at 0.3 and 8 μM ATP) | working stroke (power stroke) ([2]; shift in mean position of event distribution, 244 acto-MyoA binding events, 2 μM ATP) |
| --- | --- | --- | --- | --- | --- | --- |
| CC[C@H](C)[C@H](NC(=O)[C@H](C)NC(=O)[C@H](C)NC(=O)CNC(=O)[C@H](CO)NC(=O)CNC(=O)[C@H](CO)NC(=O)CCCC[C@@H]1SC[C@@H]2NC(=O)N[C@@H]21)C(=O)N[C@@H](CC(C)C)C(=O)N[C@@H](CCCCN)C(=O)N[C@@H](Cc1c[nH]cn1)C(=O)N[C@@H](CCCCN)C(=O)N[C@@H](Cc1ccc(O)cc1)C(=O)N[C@@H](CCCCN)C(=O)N[C@@H](CCC(N)=O)C(=O)N[C@@H](CCCCN)C(=O)N[C@H](C(=O)N[C@@H](CC(N)=O)C(=O)N[C@@H](CCCCN)C(=O)N[C@@H](CC(N)=O)C(=O)N[C@H](C(=O)N1CCC[C@H]1C(=O)N[C@@H](CO)C(N)=O)[C@@H](C)CC)C(C)C [786–803] (Biotin-SGSGAAILKHKYKQKVNKNIPS-NH2) | binds strongly to PfELC |  |  |  |  |  |
| peptide 770–787: biotinylated PfMyoA neck peptide Gln770–Ala787 with SGSG linker, C-terminal amide (Biotin-SGSGQREKLVEWENCVSVIEAA-NH2; SMILES CC[C@H](C)[C@H](NC(=O)[C@@H](NC(=O)[C@H](CO)NC(=O)[C@@H](NC(=O)[C@H](CS)NC(=O)[C@H](CC(N)=O)NC(=O)[C@H](CCC(=O)O)NC(=O)[C@H](Cc1c[nH]c2ccccc12)NC(=O)[C@H](CCC(=O)O)NC(=O)[C@@H](NC(=O)[C@H](CC(C)C)NC(=O)[C@H](CCCCN)NC(=O)[C@H](CCC(=O)O)NC(=O)[C@H](CCCNC(=N)N)NC(=O)[C@H](CCC(N)=O)NC(=O)CNC(=O)[C@H](CO)NC(=O)CNC(=O)[C@H](CO)NC(=O)CCCC[C@@H]1SC[C@@H]2NC(=O)N[C@@H]21)C(C)C)C(C)C)C(C)C)C(=O)N[C@@H](CCC(=O)O)C(=O)N[C@@H](C)C(=O)N[C@@H](C)C(N)=O; UniProt Q8IDR3 770-787, looked up, fragment) | no observable binding | no binding |  |  |  |  |
| B1 |  |  | 6.9 s⁻¹ | 53 s⁻¹ | ~1.5e+07 M⁻¹ s⁻¹ | 3 nm |

— PMC5663884, “Compositional and expression analyses of the glideosome during the Plasmodium life cycle reveal an additional myosin light chain required for maximum motility” (The Journal of Biological Chemistry, 2017)
